Test results reported in patent publication US20260274985A1 (MYTHIC THERAPEUTICS, published 2026).
Numbering of substitutions follows the chain as printed.

T1: Human TROP2 Protein, His Tag (Acro Biosystems) (human, UniProt P09758 27-274)
T1 construct: not shown: His tag
T1 sequence (looked up): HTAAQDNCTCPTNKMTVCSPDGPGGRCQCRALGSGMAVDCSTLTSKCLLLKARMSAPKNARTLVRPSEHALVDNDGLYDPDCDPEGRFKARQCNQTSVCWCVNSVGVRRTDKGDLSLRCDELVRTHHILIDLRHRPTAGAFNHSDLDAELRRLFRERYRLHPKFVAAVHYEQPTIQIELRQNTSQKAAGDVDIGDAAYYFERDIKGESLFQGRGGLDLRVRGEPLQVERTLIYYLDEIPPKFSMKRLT

T2: Human TROP2 Protein, His Tag (Acro Biosystems) (human, UniProt P09758 27-274)
T2 construct: Soluble analyte of the Octet assay; also called TACSTD2; not shown: His tag
T2 sequence (looked up): T1 sequence (looked up)

B1: MYT12295 (antibody, V domains shown)
VH: QVQLQQSGSELKKPGASVKVSCKASGYTFTNHGMNWVKQAPGQGLKWMGWINTYTGEPTHTDDFKGRFAFSLDTSVSTAYLQISSLKADDTAVYFCARGGFGSSYWYFDVWGQGSLVTVSS
VL: DIQLTQSPSSLSASVGDRVSITCKASQDVSIAVAWYQQKPGKAPKLLIYSASYRYTGVPDRFSGSGSGTDFTLTISSLQPEDFAVYYCQQHYITPLTFGAGTKVEIK
notes: sacituzumab VH 32, 60 -> H
B2: MYT12297 (antibody, V domains shown)
VH: B1 VH with H60Y, D63H
VL: B1 VL
notes: sacituzumab VH 32, 63 -> H
B3: MYT12306 (antibody, V domains shown)
VH: B1 VH with H32Y, G33H, H60Y, G66H
VL: B1 VL
notes: sacituzumab VH 33, 66 -> H
B4: MYT12302 (antibody, V domains shown)
VH: B1 VH with H32Y, G33H, H60Y, D62H
VL: B1 VL
notes: sacituzumab VH 33, 62 -> H
B5: MYT12298 (antibody, V domains shown)
VH: B1 VH with H60Y, F64H
VL: B1 VL
notes: sacituzumab VH 32, 64 -> H
B6: MYT12335 (antibody, V domains shown)
VH: B1 VH with H32Y, H60Y
VL: B1 VL with S30H, Y53H
notes: sacituzumab VL 30, 53 -> H
B7: MYT12336 (antibody, V domains shown)
VH: B1 VH with H32Y, H60Y
VL: B1 VL with S30H, Q89H
notes: sacituzumab VL 30, 89 -> H
B8: MYT12341 (antibody, V domains shown)
VH: B1 VH with H32Y, H60Y
VL: B1 VL with V33H, S52H
notes: sacituzumab VL 33, 52 -> H
B9: MYT12339 (antibody, V domains shown)
VH: B1 VH with H32Y, H60Y
VL: B1 VL with S30H, I93H
notes: sacituzumab VL 30, 93 -> H
B10: MYT12332 (antibody, V domains shown)
VH: B1 VH with H32Y, H60Y
VL: B1 VL with S30H, V33H
notes: sacituzumab VL 30, 33 -> H
B11: MYT12329 (antibody, V domains shown)
VH: B1 VH with H32Y, F64H, G66H
VL: B1 VL
notes: sacituzumab VH 60, 64, 66 -> H
B12: MYT12328 (antibody, V domains shown)
VH: B1 VH with H32Y, F64H, K65H
VL: B1 VL
notes: sacituzumab VH 60, 64, 65 -> H
B13: MYT12333 (antibody, V domains shown)
VH: B1 VH with H32Y, H60Y
VL: B1 VL with S30H, A51H
notes: sacituzumab VL 30, 51 -> H
B14: MYT12340 (antibody, V domains shown)
VH: B1 VH with H32Y, H60Y
VL: B1 VL with V33H, A51H
notes: sacituzumab VL 33, 51 -> H
B15: MYT12334 (antibody, V domains shown)
VH: B1 VH with H32Y, H60Y
VL: B1 VL with S30H, S52H
notes: sacituzumab VL 30, 52 -> H
B16: MYT13229 (antibody, V domains shown)
VH: B1 VH with H32Y, H60Y, F64H
VL: B1 VL with I93H
notes: Sacituzumab HC-LC pairing variant; IgG
B17: MYT13247 (antibody, V domains shown)
VH: B1 VH with H32Y, H60Y, G66H
VL: B1 VL with A51H, Q89H
notes: as for B16
B18: MYT13212 (antibody, V domains shown)
VH: B1 VH with H32Y, H60Y, D63H
VL: B1 VL with H91A
notes: as for B16
B19: MYT13224 (antibody, V domains shown)
VH: B1 VH with H60Y
VL: B1 VL with I93H
notes: as for B16
B20: MYT13228 (antibody, V domains shown)
VH: B1 VH with H32Y, H60Y, D63H
VL: B1 VL with I93H
notes: as for B16
B21: MYT13215 (antibody, V domains shown)
VH: B1 VH with H32Y, H60Y, G66H
VL: B1 VL with H91A
notes: as for B16
B22: MYT13234 (antibody, V domains shown)
VH: B1 VH with H32Y
VL: B1 VL with A51H, S52H
notes: as for B16
B23: MYT13206 (antibody, V domains shown)
VH: B1 VH with H32Y, H60Y, K65H
VL: B1 VL with Q89H
notes: as for B16
B24: MYT13207 (antibody, V domains shown)
VH: B1 VH with H32Y, H60Y, G66H
VL: B1 VL with Q89H
notes: as for B16
B25: MYT13213 (antibody, V domains shown)
VH: B1 VH with H32Y, H60Y, F64H
VL: B1 VL with H91A
notes: as for B16
B26: MYT13235 (antibody, V domains shown)
VH: B1 VH with H32Y, H60Y, D62H
VL: B1 VL with A51H, S52H
notes: as for B16
B27: MYT13242 (antibody, V domains shown)
VH: B1 VH with H32Y
VL: B1 VL with A51H, Q89H
notes: as for B16
B28: MYT13204 (antibody, V domains shown)
VH: B1 VH with H32Y, H60Y, D63H
VL: B1 VL with Q89H
notes: as for B16
B29: MYT13246 (antibody, V domains shown)
VH: B1 VH with H32Y, H60Y, K65H
VL: B1 VL with A51H, Q89H
notes: as for B16
B30: MYT13244 (antibody, V domains shown)
VH: B1 VH with H32Y, H60Y, D63H
VL: B1 VL with A51H, Q89H
notes: as for B16
B31: MYT13243 (antibody, V domains shown)
VH: B1 VH with H32Y, H60Y, D62H
VL: B1 VL with A51H, Q89H
notes: as for B16
B32: MYT13248 (antibody, V domains shown)
VH: B1 VH with H60Y
VL: B1 VL with S52H, I93H
notes: as for B16
B33: MYT13240 (antibody, V domains shown)
VH: B1 VH with H60Y
VL: B1 VL with A51H, Q89H
notes: as for B16
B34: MYT13245 (antibody, V domains shown)
VH: B1 VH with H32Y, H60Y, F64H
VL: B1 VL with A51H, Q89H
notes: as for B16
B35: MYT13211 (antibody, V domains shown)
VH: B1 VH with H32Y, H60Y, D62H
VL: B1 VL with H91A
notes: as for B16
B36: MYT13230 (antibody, V domains shown)
VH: B1 VH with H32Y, H60Y, K65H
VL: B1 VL with I93H
notes: as for B16
B37: MYT13225 (antibody, V domains shown)
VH: B1 VH with H32Y, G33H, H60Y
VL: B1 VL with I93H
notes: as for B16
B38: MYT13205 (antibody, V domains shown)
VH: B1 VH with H32Y, H60Y, F64H
VL: B1 VL with Q89H
notes: as for B16
B39: MYT13226 (antibody, V domains shown)
VH: B1 VH with H32Y
VL: B1 VL with I93H
notes: as for B16
B40: MYT13236 (antibody, V domains shown)
VH: B1 VH with H32Y, H60Y, D63H
VL: B1 VL with A51H, S52H
notes: as for B16
B41: MYT13231 (antibody, V domains shown)
VH: B1 VH with H32Y, H60Y, G66H
VL: B1 VL with I93H
notes: as for B16
B42: MYT13214 (antibody, V domains shown)
VH: B1 VH with H32Y, H60Y, K65H
VL: B1 VL with H91A
notes: as for B16
B43: MYT13227 (antibody, V domains shown)
VH: B1 VH with H32Y, H60Y, D62H
VL: B1 VL with I93H
notes: as for B16

Each binder was assayed against T1, Human TROP2 Protein, His Tag (Acro …) (assay: BLI (Octet)).

Binding result, binds:
B1
B2
B3
B4
B5

The binders below were run against T1, Human TROP2 Protein, His Tag (Acro …) (assay: BLI (Octet) [1/2]).

Binding result, binds:
B6
B7
B8
B9
B10
B11
B12
B13
B14
B15

What follows are binders tested against T2, Human TROP2 Protein, His Tag (Acro …) (assay: BLI (Octet) [1/2]).

Binding result, binds:
B16
B17
B18
B19
B20
B21
B22
B23
B24
B25
B26
B27
B28
B29
B30
B31
B32
B33
B34
B35
B36
B37
B38
B39
B40
B41
B42
B43
